Results on 28 molecules are retold here after patent publication US20170209529A1 (BRIGHAM AND WOMEN S HOSPITAL, published 2017).

Assay [1] has as its target T1, soluble human FcRn (shFcRn) (human, UniProt P55899 24-297; P61769 21-119).
T1 construct: For crystallography it was expressed in CHOK1SV cells and deglycosylated with PNGaseF; biotinylated for phage selection; also called hFcRn/β2m; FcRn-biotin
As to the kind of experiment: SPR (Biacore), Kd pH 7.4 divided by Kd pH 6.0. A general note: In SPR one partner is held on a chip, and binding of the other changes the refractive index at the surface.

Assay [2] concerns the target T1, soluble human FcRn (shFcRn). The assay is described as follows: SPR (Biacore), immobilized shFcRn, pH 6, steady-state fit.
For assay [3] the target is unchanged. The assay is described as follows: SPR (Biacore), immobilized shFcRn, pH 7.4.
Assay [4] has the same target. The assay is described as follows: SPR (Biacore), immobilized shFcRn, pH 6, steady-state fit. This is another data set of the same source.

Values joined by “and” are separate entries in the source; they are usually repeats but may differ in a detail not shown here. Identical values can stand only once. Bridge positions count the residues as written; N and C are the ends.

T1 sequence (P55899 24-297 limits assumed, chain 1 of 2): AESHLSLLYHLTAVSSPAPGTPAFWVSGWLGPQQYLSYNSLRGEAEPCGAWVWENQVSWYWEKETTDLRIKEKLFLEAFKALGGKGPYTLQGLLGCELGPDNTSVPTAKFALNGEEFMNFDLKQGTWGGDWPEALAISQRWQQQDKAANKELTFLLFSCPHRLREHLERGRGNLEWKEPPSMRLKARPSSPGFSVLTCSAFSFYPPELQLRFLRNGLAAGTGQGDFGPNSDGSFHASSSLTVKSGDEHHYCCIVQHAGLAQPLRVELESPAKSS
T1 sequence (P61769 21-119 limits assumed, chain 2 of 2): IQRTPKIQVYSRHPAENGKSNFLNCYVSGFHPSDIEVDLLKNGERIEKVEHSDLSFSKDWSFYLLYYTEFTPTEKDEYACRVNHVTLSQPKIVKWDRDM

In general, Kd refers to a measure of binding affinity in units of concentration. Lower therefore signals higher affinity. In the case of Ac-VMHCFWDEEFKCDQG-NH2 (disulfide 4-12 (inferred)) [SYN1197], the “Kd Ratio 7.4/6.0” value in assay [1] was 84. Moreover, the Kd in assay [2] stood at 0.74 µM; in assay [3] it was 62 µM.

As for Ac-VMHCFWDEEFKCDYG-NH2 (disulfide 4-12 (inferred)) [SYN1259], the “Kd Ratio 7.4/6.0” value in assay [1] is 132. For the same molecule, the Kd in assay [2] was found to be 0.091 µM; in assay [3], 12 µM.

As for Ac-VMHCFWDEEFKCEQG-NH2 (disulfide 4-12 (inferred)) [SYN1258], the “Kd Ratio 7.4/6.0” value in assay [1] was found to be 65. In addition, the Kd in assay [2] came to 0.37 µM; in assay [3] it was 24 µM.

Regarding Ac-VMHCFWDEEFKCDQV-NH2 (disulfide 4-12 (inferred)) [SYN1260], the “Kd Ratio 7.4/6.0” value in assay [1] came out at 73. For the same molecule, the Kd in assay [2] was found to be 0.3 µM; in assay [3], 22 µM.

In the case of Ac-VMHCFWDEGFKCDQG-NH2 (disulfide 4-12 (inferred)) [SYN1257], the Kd in assay [2] was 1.45 µM; in assay [3], 40 µM.

Ac-VMHCFWDEAFRCDQG-NH2 (disulfide 4-12 (inferred)) [SYN1382]: the “Kd Ratio 7.4/6.0” value in assay [1] stood at 25. Moreover, the Kd in assay [2] was determined as 4.4 µM; in assay [3] it was 112 µM.

As to Ac-VMACFWDEEFKCDQG-NH2 (disulfide 4-12 (inferred)) [SYN1215], the affinity in assay [2], expressed as Kd, was 2.84 µM.

On to Ac-YMHCFWDEEFKCDQG-NH2 (disulfide 4-12 (inferred)) [SYN1256], for which, in assay [1], the “Kd Ratio 7.4/6.0” value turned out to be 69. The Kd stood at 0.72 µM in assay [2] and 50 µM in assay [3].

Consider Ac-VMHCFWDEEFRCDYG-NH2 (disulfide 4-12 (inferred)) [SYN1381], for which the “Kd Ratio 7.4/6.0” value in assay [1] amounted to 82. Besides, the Kd is 0.06 µM in assay [2] and 4.9 µM in assay [3].

Regarding Ac-VMHCFWDEAFKCDQG-NH2 (disulfide 4-12 (inferred)) [SYN1216], the “Kd Ratio 7.4/6.0” value in assay [1] worked out at 52. In addition, the figures for the Kd in assay [2] and in assay [3] were 3.6 µM and 186 µM, respectively.

As to Ac-AGVMKCWWDEEMLCRAFGTGGGK-NH2 (disulfide 6-14 (inferred)) [SYN531], in assay [1], the “Kd Ratio 7.4/6.0” value was 99. For the same molecule, the Kd in assay [2] was 0.45 µM and 0.3 µM; in assay [3] it was 44.4 µM.

In the case of Ac-AMTCKWDDGFSCEYV-NH2 (disulfide 4-12 (inferred)) [SYN1144], the “Kd Ratio 7.4/6.0” value in assay [1] was determined as 23.3. The Kd amounted to 1.25 µM in assay [2] and 29.1 µM in assay [3].

Regarding Ac-YMTCKWDDGFSCAYV-NH2 (disulfide 4-12 (inferred)) [SYN1154], in assay [1], the “Kd Ratio 7.4/6.0” value is 20. Also, the affinity in assay [3], expressed as Kd, was 9.2 µM.

In the case of Ac-YMTCKWDDAFSCEYV-NH2 (disulfide 4-12 (inferred)) [SYN1151], the “Kd Ratio 7.4/6.0” value in assay [1] was determined as 25. The Kd is 1.5 µM and 0.83 µM in assay [2]; 20.7 µM in assay [3].

Take Ac-YMTCKWADGFSCEYV-NH2 (disulfide 4-12 (inferred)) [SYN1149]: the “Kd Ratio 7.4/6.0” value in assay [1] came to 7.8. The figures for the Kd in assay [2] and in assay [3] were 1.54 µM and 12 µM, respectively.

As to Ac-YMTCKWDDGFSCEAV-NH2 (disulfide 4-12 (inferred)) [SYN1155], the “Kd Ratio 7.4/6.0” value in assay [1] is 9.8. Also, the Kd in assay [2] is 1.76 µM; in assay [3], 17.3 µM.

Turning to Ac-YMTCKWDDGFSCEYA-NH2 (disulfide 4-12 (inferred)) [SYN1156], the “Kd Ratio 7.4/6.0” value in assay [1] was 38. Moreover, the figures for the Kd in assay [2] and in assay [3] were 0.58 µM and 22 µM, respectively.

Take Ac-VMKCWWDEEMLCRAF-NH2 (disulfide 4-12 (inferred)) [SYN1532]: the “Kd Ratio 7.4/6.0” value in assay [1] was determined as 112. Besides, the Kd in assay [2] was found to be 0.154 µM; in assay [3], 17.3 µM.

As for Ac-VMKCFWDEEMLCRAF-NH2 (disulfide 4-12 (inferred)) [SYN1535], the “Kd Ratio 7.4/6.0” value in assay [1] turned out to be 35. Further, the results for the dissociation constant Kd in assay [2] and in assay [3] were 2.6 µM and 91.3 µM, respectively.

On to Ac-VMKCWWDEEMLCRYF-NH2 (disulfide 4-12 (inferred)) [SYN1539], for which the “Kd Ratio 7.4/6.0” value in assay [1] worked out at 83. The Kd in assay [2] stood at 0.104 µM; in assay [3], 8.6 µM.

Ac-VMKCWWDEEMLCRAV-NH2 (disulfide 4-12 (inferred); not fully specified) [SYN1540A]: the “Kd Ratio 7.4/6.0” value in assay [1] worked out at 80. Moreover, the Kd in assay [2] stood at 0.572 µM; in assay [3], 45.7 µM.

With Ac-VMKCWWDEEMLCEAF-NH2 (disulfide 4-12 (inferred)) [SYN1538], the “Kd Ratio 7.4/6.0” value in assay [1] amounted to 71. Further, the figures for the Kd in assay [2] and in assay [3] were 0.267 µM and 18.9 µM, respectively.

Take Ac-VMKCWWDEEMLCRAV-NH2 (disulfide 4-12 (inferred); not fully specified) [SYN1540B]: the Kd in assay [2] amounted to 0.702 µM.

With Ac-VMHCWWDEEMLCRAF-NH2 (disulfide 4-12 (inferred)) [SYN1533], in assay [1], the “Kd Ratio 7.4/6.0” value was 106. The Kd worked out at 0.558 µM in assay [2] and 59.1 µM in assay [3].

Regarding Ac-VMRCWWDEEMLCRAF-NH2 (disulfide 4-12 (inferred)) [SYN1534], the “Kd Ratio 7.4/6.0” value in assay [1] is 125. The Kd stood at 0.162 µM in assay [2] and 20.2 µM in assay [3].

Ac-AYFCTKWKHGWCEEV-NH2 (disulfide 4-12 (inferred)) [SYN1542] had a Kd in assay [4] of 13.8 µM.

Molecule Ac-RAFCTKWKHGWCEEV-NH2 (disulfide 4-12 (inferred)) [SYN1543] yielded a dissociation constant Kd in assay [4] of 67.5 µM.

Ac-MTCKWDDGFSCEYV-NH2 (disulfide 3-11 (inferred)) [SYN1161]: in assay [2], the Kd was 1.21 µM and 1.17 µM.
